The labels stand for the following.
B1: Pre-mRNA-processing factor 19 (Saccharomyces cerevisiae), P32523 (parent)
chain: MLCAISGKVPRRPVLSPKSRTIFEKSLLEQYVKDTGNDPITNEPLSIEEIVEIVPSAQQASLTESTNSATLKANYSIPNLLTSLQNEWDAIMLENFKLRSTLDSLTKKLSTVMYERDAAKLVAAQLLMEKNEDSKDLPKSSQQAVAITREEFLQGLLQSSRDFVARGKLKAPKWPILKNLELLQAQNYSRNIKTFPYKELNKSMYYDKWVCMCRCEDGALHFTQLKDSKTITTITTPNPRTGGEHPAIISRGPCNRLLLLYPGNQITILDSKTNKVLREIEVDSANEIIYMYGHNEVNTEYFIWADNRGTIGFQSYEDDSQYIVHSAKSDVEYSSGVLHKDSLLLALYSPDGILDVYNLSSPDQASSRFPVDEEAKIKEVKFADNGYWMVVECDQTVVCFDLRKDVGTLAYPTYTIPEFKTGTVTYDIDDSGKNMIAYSNESNSLTIYKFDKKTKNWTKDEESALCLQSDTADFTDMDVVCGDGGIAAILKTNDSFNIVALTP
partner: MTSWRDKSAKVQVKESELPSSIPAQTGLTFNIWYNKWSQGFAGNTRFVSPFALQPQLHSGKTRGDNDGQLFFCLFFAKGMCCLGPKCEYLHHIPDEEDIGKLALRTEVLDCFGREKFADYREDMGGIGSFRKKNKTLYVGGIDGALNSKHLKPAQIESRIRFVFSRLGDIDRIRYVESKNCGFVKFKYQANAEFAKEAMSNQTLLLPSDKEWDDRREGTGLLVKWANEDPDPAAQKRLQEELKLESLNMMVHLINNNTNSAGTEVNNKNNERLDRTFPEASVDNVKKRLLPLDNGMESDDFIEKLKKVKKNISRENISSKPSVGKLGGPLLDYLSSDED

Consider five variants from IntAct's records for PubMed 20462492.

This test covers variants of B1. To be noted: with cwc2_yeast CWC2, Q12046.
On to MLCAISGKVPRRPVLSPKSRTIFEKSLLEQYVKDTGNDPITNEPLSIEEIVEIVPSAQQASLTESTNSATLKANYSIPNLLTSLQNEWDAIMLENFKLRSTLDSLTKKLSTVMYERDAAKLVAAQLLMEKNEDSKDLPKSSQQAVAITREEFLQGLLQSSRDFVARGKLKAPKWPILKNLELLQAQNYSRNIKTFPYKELNKSMYYDKWVCMCRCEDGALHFTQLKDSKTITTITTPNPRTGGEHPAIISRGPCNRLLLLYPGNQITILDSKTNKVLREIEVDSANEIIYMYGHNEVNTEYFIWADNRGTIGFQSYEDDSQYIVHSAKSDVEYSSGVLHKDSLLLALYSPDGILDVYNLSSPDQASSRFPVDEEAKIKEVKFADNGYWMVVECDQTVVCFDLAADVGTLAYPTYTIPEFKTGTVTYDIDDSGKNMIAYSNESNSLTIYKFDKKTKNWTKDEESALCLQSDTADFTDMDVVCGDGGIAAILKTNDSFNIVALTP [R403A;K404A], for which the “effect of a mutation on the interaction” value is given as “disrupting interaction”.
MLCAISGKVPRRPVLSPKSRTIFEKSLLEQYVKDTGNDPITNEPLSIEEIVEIVPSAQQASLTESTNSATLKANYSIPNLLTSLQNEWDAIMLENFKLRSTLDSLTKKLSTVMYERDAAKLVAAQLLMEKNEDSKDLPKSSQQAVAITREEFLQGLLQSSRDFVARGKLKAPKWPILKNLELLQAQNYSRNIKTFPYKELNKSMYYDKWVCMCRCEDGALHFTQLKDSKTITTITTPNPRTGGEHPAIISRGPCNRLLLLYPGNQITILDSKTNKVLREIEVDSANEIIYMYGHNEVNTEYFIWADNRGTIGFQSYEDDSQYIVHSAKSDVEYSSGVLHKDSLLLALYSPDGILDVYNLSSPDQASSRFPVDEEAKIKEVKFADNGYWMVVECDQTVVCFDLAKDVGTLAYPTYTIPEFKTGTVTYDIDDSGKNMIAYSNESNSLTIYKFDKKTKNWTKDEESALCLQSDTADFTDMDVVCGDGGIAAILKTNDSFNIVALTP [R403A]: the “effect of a mutation on the interaction” value was “disrupting interaction”.
For MLCAISGKVPRRPVLSPKSRTIFEKSLLEQYVKDTGNDPITNEPLSIEEIVEIVPSAQQASLTESTNSATLKANYSIPNLLTSLQNEWDAIMLENFKLRSTLDSLTKKLSTVMYERDAAKLVAAQLLMEKNEDSKDLPKSSQQAVAITREEFLQGLLQSSRDFVARGKLKAPKWPILKNLELLQAQNYSRNIKTFPYKELNKSMYYDKWVCMCRCEDGALHFTQLKDSKTITTITTPNPRTGGEHPAIISRGPCNRLLLLYPGNQITILDSKTNKVLREIEVDSANEIIYMYGHNEVNTEYFIWADNRGTIGFQSYEDDSQYIVHSAKSDVEYSSGVLHKDSLLLALYSPDGILDVYNLSSPDQASSRFPVDEEAKIKEVKFADNGYWMVVECDQTVVCFDLRADVGTLAYPTYTIPEFKTGTVTYDIDDSGKNMIAYSNESNSLTIYKFDKKTKNWTKDEESALCLQSDTADFTDMDVVCGDGGIAAILKTNDSFNIVALTP [K404A] the value was “decreasing interaction”; for MLCAISGKVPRRPVLSPKSRTIFEKSLLEQYVKDTGNDPITNEPLSIEEIVEIVPSAQQASLTESTNSATLKANYSIPNLLTSLQNEWDAIMLENFKLRSTLDSLTKKLSTVMYERDAAKLVAAQLLMEKNEDSKDLPKSSQQAVAITREEFLQGLLQSSRDFVARGKLKAPKWPILKNLELLQAQNYSRNIKTFPYKELNKSMYYDKWVCMCRCEDGALHFTQLKDSKTITTITTPNPRTGGEHPAIISRGPCNRLLLLYPGNQITILDSKTNKVLREIEVDSANEIIYMYGHNEVNTEYFIWADNRGTIGFQSYEDDSQYIVHSAKSDVEYSSGVLHKDSLLLALYSPDGILDVYNLSSPDQASSRFPVDEEAKIKEVKFADNGAWMVVECDQTVVCFDLRKDVGTLAYPTYTIPEFKTGTVTYDIDDSGKNMIAYSNESNSLTIYKFDKKTKNWTKDEESALCLQSDTADFTDMDVVCGDGGIAAILKTNDSFNIVALTP [Y387A], “decreasing interaction”; for MLCAISGKVPRRPVLSPKSRTIFEKSLLEQYVKDTGNDPITNEPLSIEEIVEIVPSAQQASLTESTNSATLKANYSIPNLLTSLQNEWDAIMLENFKLRSTLDSLTKKLSTVMYERDAAKLVAAQLLMEKNEDSKDLPKSSQQAVAITREEFLQGLLQSSRDFVARGKLKAPKWPILKNLELLQAQNYSRNIKTFPYKELNKSMYYDKWVCMCRCEDGALHFTQLKDSKTITTITTPNPRTGGEHPAIISRGPCNRLLLLYPGNQITILDSKTNKVLREIEVDSANEIIYMYGHNEVNTEYFIWADNRGTIGFQSYEDDSQYIVHSAKSDVEYSSGVLHKASLLLALYSPDGILDVYNLSSPDQASSRFPVDEEAKIKEVKFADNGYWMVVECDQTVVCFDLRKDVGTLAYPTYTIPEFKTGTVTYDIDDSGKNMIAYSNESNSLTIYKFDKKTKNWTKDEESALCLQSDTADFTDMDVVCGDGGIAAILKTNDSFNIVALTP [D341A], “decreasing interaction”.
